These results are taken from the RNAGym collection of RNA variant scans (doi:10.7554/elife.80360).

B1: CPEB3 Ribozyme (parent)
chain: GGGGGCCACAGCAGAAGCGUUCACGUCGCGGCCCCUGUCAGAUUCUGGUGAAUCUGCGAAUUCUGCUGU

In this series the parent is B1. Nature of the series: self-cleavage, relative activity (ratio to wild type); higher = more cleavage; co-transcriptional.
As for GGGGGGCACAGCAGAAGCGUUCACGUCGCGGCCCCUGUGAGAUUCUGGUGAAUCUGCGAAUUCUGCUGU, the self-cleavage was found to be 0.174.

GGGGGGCAGAGCAGAAGCGUUCACGUCGCGGCCCCUGUCAGAUUCUGGUGAAUCUGCGAAUUCUGCUGU: the self-cleavage was found to be 0.445.

In the case of GGGGGGCAAAGCAGAAGCGUUCACGUCGCGGCCCCUGUCAGAUUCUGGUGAAUCUGCGAAUUCUGCUGU, the self-cleavage was determined as 0.651.

Regarding GGGGGGCACAGCAGAAGCGUUCACGUCGCGGCCCCUGUCAGAUUCUGGUGAAUCUGCGCAUUCUGCUGU, the self-cleavage was found to be 0.21.

GGGGGGCACAGCAGAAGCGUUCACGUCGCGGCCCCUGUCAGAUUCUGGUGAAUCUGCGGAUUCUGCUGU: the self-cleavage came out at 0.255.

For GGGGGGCACAGCAGAAGCGUUCACGUCGCGGCCCCUGUCAGAUUCUGGUGAGUCUGCGAAUUCUGCUGU, the self-cleavage was 0.343.

Take GGGGGGCACAGCAGAAGCGUUCACGUCGCGGCCCCUGUCAGAUUCUGGUGACUCUGCGAAUUCUGCUGU: the self-cleavage came out at 0.264.

GGGGGGCACAGCAGAAGCGUUCACGUCGCGGCCCCUGUCAGAUUCUGGUGAAUCUGCGAAUUCUGUUGU: the self-cleavage came out at 0.316.

Regarding GGGGGGCACAGCAGAAGCGUUCACGUCGCGGCCCCUGUCAGAUUCUGGUGAAUCUGCGAAUUCUGAUGU, the self-cleavage is 0.18.

Regarding GGGGGGCACAGCAGAAACGUUCACGUCGCGGCCCCUGUCAGAUUCUGGUGAAUCUGCGAAUUCUGCUGU, the self-cleavage came to 0.0588.

With GGGGGGCACAGCAGAAUCGUUCACGUCGCGGCCCCUGUCAGAUUCUGGUGAAUCUGCGAAUUCUGCUGU, the self-cleavage came out at 0.0809.

Take GGGGGGCACAGCAGAACCGUUCACGUCGCGGCCCCUGUCAGAUUCUGGUGAAUCUGCGAAUUCUGCUGU: the self-cleavage was determined as 0.0719.

Regarding GGGGGGCACAGCAGAAGCGUUCACGUCGCGGCCCCUGUCAGUUUCUGGUGAAUCUGCGAAUUCUGCUGU, the self-cleavage was 0.154.

With GGGGGGCACAGCAGAAGCGUUCACGUCGCGGCCCCUGUCAGCUUCUGGUGAAUCUGCGAAUUCUGCUGU, the self-cleavage was determined as 0.257.

On to GGGGGGCACAGCAGAAGCGUUCCCGUCGCGGCCCCUGUCAGAUUCUGGUGAAUCUGCGAAUUCUGCUGU, for which the self-cleavage is 0.302.

On to GGGGGGCACAGCGGAAGCGUUCACGUCGCGGCCCCUGUCAGAUUCUGGUGAAUCUGCGAAUUCUGCUGU, for which the self-cleavage turned out to be 0.0914.

For the variant GGGGGGCACAGCAGAAGCGUUCACGUCGCGGCCCCUGUCAGAUUCUGGUGAAUCUGAGAAUUCUGCUGU, the self-cleavage stood at 0.0667.

In the case of GGGGGGCACAGCAGAAGCGUUCACGUCGCGGCCCCUGUCAGAUUCUGGUGAAUCUGUGAAUUCUGCUGU, the self-cleavage came to 0.189.

As to GGGGGACACAGCAGAAGCGUUCACGUCGCGGCCCCUGUCAGAUUCUGGUGAAUCUGCGAAUUCUGCUGA, the self-cleavage amounted to 0.884.

For the variant GGGGGACACAGCAGAAGCGUUCACGUCGCGGCCCCUGUCAGAUUCUGGUGAAUCUGCGAAUUCUGCUGC, the self-cleavage was 1.03.

As for GGGGGACACAGCAGAAGCGUUCACGUCGCGGCCCCUGUCAGAUUCUGGUGAAUCUGCGAAUUCUGCUGG, the self-cleavage amounted to 0.838.

Turning to GGGGGGCACAGCAGAAGCGUUCACGUCGCGGCCCCUGUCAGAUUCUGGUGUAUCUGCGAAUUCUGCUGU, the self-cleavage came to 0.353.

On to GGGGGGCACAGCAGAAGCGUUCACGUCGCGGCCCCUGUCAGAUUCUGGUGAAUUUGCGAAUUCUGCUGU, for which the self-cleavage amounted to 0.398.

As to GGGGGGCACAGCAGAAGCGUUCACGUCGCGGCCCCUGUCAGAUUCUGGUGAAUGUGCGAAUUCUGCUGU, the self-cleavage is 0.0918.

With GGGGGGCACAGCAGAAGCGUUCACGUCGCGGCCCCUGUCGGAUUCUGGUGAAUCUGCGAAUUCUGCUGU, the self-cleavage was 0.307.

Turning to GGGGGGCACAGCAGAAGCGUUCACGUCGCGGCCCCUGUCUGAUUCUGGUGAAUCUGCGAAUUCUGCUGU, the self-cleavage is 0.0791.

For GGGGGGCACAGCAGAAGCGUUCACGUCGCGGCCCCUGUCCGAUUCUGGUGAAUCUGCGAAUUCUGCUGU, the self-cleavage turned out to be 0.128.

As for GGGGGGCACAGCAGAAGCGUUCACGUCGCGGCCGCUGUCAGAUUCUGGUGAAUCUGCGAAUUCUGCUGU, the self-cleavage is 0.0582.

For GGGGGGCACAGCAGAAGCGUUCACGUCGCGGCCUCUGUCAGAUUCUGGUGAAUCUGCGAAUUCUGCUGU, the self-cleavage worked out at 0.304.

In the case of GGGGGGCACAGCAGAAGCGUUCACGUCGCGGCCCCUGUCAGAUUCUGGUGAAUCUGCGAAUUCUGCUGU, the self-cleavage was 0.388.

Turning to GGGGGGCACAGCAGAAGCGUUCACGUCGCGGCCCCUGUCAGAUUCUGGUGAAUCUGCGAUUUCUGCUGU, the self-cleavage came to 0.137.

Take GGGGGGCACAGCAGAAGCGUUCACGUCGCGGCCCCUGUCAGAUUCUGGUGAAUCUGCGAGUUCUGCUGU: the self-cleavage is 0.16.

As for GGGGGGCCCAGCAGAAGCGUUCACGUCGCGGCCCCUGUCAGAUUCUGGUGAAUCUGCGAAUUCUGCUGU, the self-cleavage is 0.873.

Take GGGGGGCUCAGCAGAAGCGUUCACGUCGCGGCCCCUGUCAGAUUCUGGUGAAUCUGCGAAUUCUGCUGU: the self-cleavage stood at 0.149.

On to GGGGGACACAGCAGAAGCGUUCACGUCGCGGCCCCUGUCAGAUUCUGGUGAAUCUGCGAAUUCAGCUGU, for which the self-cleavage turned out to be 0.307.

GGGGGACACAGCAGAAGCGUUCACGUCGCGGCCCCUGUCAGAUUCUGGUGAAUCUGCGAAUUCGGCUGU: the self-cleavage amounted to 0.469.

Regarding GGGGGGCACAGCAGAAGCGUUCACCUCGCGGCCCCUGUCAGAUUCUGGUGAAUCUGCGAAUUCUGCUGU, the self-cleavage amounted to 0.0497.

Regarding GGGGGGCACAGCAGAAGCGUUCACUUCGCGGCCCCUGUCAGAUUCUGGUGAAUCUGCGAAUUCUGCUGU, the self-cleavage came out at 0.0634.

In the case of GGGGGGCACAGCAAAAGCGUUCACGUCGCGGCCCCUGUCAGAUUCUGGUGAAUCUGCGAAUUCUGCUGU, the self-cleavage turned out to be 0.0825.

For GGGGGGCACAGCACAAGCGUUCACGUCGCGGCCCCUGUCAGAUUCUGGUGAAUCUGCGAAUUCUGCUGU, the self-cleavage turned out to be 0.0817.

In the case of GGGGGGCACAGCAGAAGCGUUCACGUCGGGGCCCCUGUCAGAUUCUGGUGAAUCUGCGAAUUCUGCUGU, the self-cleavage stood at 0.0434.

Take GGGGGGCACAGCAGAAGCGUUCACGUCGUGGCCCCUGUCAGAUUCUGGUGAAUCUGCGAAUUCUGCUGU: the self-cleavage was found to be 0.0888.

Regarding GGGGGGCACACCAGAAGCGUUCACGUCGCGGCCCCUGUCAGAUUCUGGUGAAUCUGCGAAUUCUGCUGU, the self-cleavage stood at 0.17.

For the variant GGGGGGCACAGCAGACGCGUUCACGUCGCGGCCCCUGUCAGAUUCUGGUGAAUCUGCGAAUUCUGCUGU, the self-cleavage turned out to be 0.0895.

In the case of GGGGGGCACAGCAGAUGCGUUCACGUCGCGGCCCCUGUCAGAUUCUGGUGAAUCUGCGAAUUCUGCUGU, the self-cleavage was 0.151.

With GGGGGGCACAGCAGAAGCGUUCACGUCGCGGGCCCUGUCAGAUUCUGGUGAAUCUGCGAAUUCUGCUGU, the self-cleavage was found to be 0.0963.

Consider GGGGGGCACAGCAGAAGCGUUCACGUCGCGGUCCCUGUCAGAUUCUGGUGAAUCUGCGAAUUCUGCUGU, for which the self-cleavage turned out to be 0.212.

With GGGGGGCACAGCAGAAGCGUUCACGUCGCGGACCCUGUCAGAUUCUGGUGAAUCUGCGAAUUCUGCUGU, the self-cleavage worked out at 0.0685.

As to GGGGGACACAGCAGAAGCGUUCACGUCGCGGCCCCUGUCAGAUUCUGGUGAAUCUGCGAAUUCUGCAGU, the self-cleavage worked out at 0.782.

Consider GGGGGACACAGCAGAAGCGUUCACGUCGCGGCCCCUGUCAGAUUCUGGUGAAUCUGCGAAUUCUGCCGU, for which the self-cleavage stood at 0.883.

In the case of GGGGGGCACAGCAGAAGCGUUCACGUCGCGGCCCAUGUCAGAUUCUGGUGAAUCUGCGAAUUCUGCUGU, the self-cleavage was found to be 0.0719.

Consider GGGGGGCACAGCAGAAGCGUUCACGUCGCGGCCCUUGUCAGAUUCUGGUGAAUCUGCGAAUUCUGCUGU, for which the self-cleavage was found to be 0.15.

Take GGGGGGCACAGCAGAAGCGUUCACGUCGCAGCCCCUGUCAGAUUCUGGUGAAUCUGCGAAUUCUGCUGU: the self-cleavage came to 0.172.

With GGGGGGCACAGCAGAAGCGUUCACGUCGCGGCCCCUGUCAGAUUCUGGUGAAUCUGCGAAUUAUGCUGU, the self-cleavage was found to be 0.185.

Turning to GGGGGGCACAGCAGAAGCGUUCACGUCGCGGCCCCUGUCAGAUUCUGGUGAAUCUGCGAAUUUUGCUGU, the self-cleavage was 0.262.

As to GGGGGGCACAGCAGAAGCGUUCACGUCGCGGCCCCUGUCAGAUUCUGGUGAAUCUGCGAAUUGUGCUGU, the self-cleavage stood at 0.149.

For the variant GGGGGGCACAGCAGAAGAGUUCACGUCGCGGCCCCUGUCAGAUUCUGGUGAAUCUGCGAAUUCUGCUGU, the self-cleavage amounted to 0.0602.

For GGGGGGCACAGCAGAAGGGUUCACGUCGCGGCCCCUGUCAGAUUCUGGUGAAUCUGCGAAUUCUGCUGU, the self-cleavage was 0.062.

GGGGGGCACAGCAGAAGUGUUCACGUCGCGGCCCCUGUCAGAUUCUGGUGAAUCUGCGAAUUCUGCUGU: the self-cleavage was 0.0723.

For the variant GGGGGGCACAGCAGAAGCAUUCACGUCGCGGCCCCUGUCAGAUUCUGGUGAAUCUGCGAAUUCUGCUGU, the self-cleavage is 0.0949.

On to GGGGGGCACAGCAGAAGCUUUCACGUCGCGGCCCCUGUCAGAUUCUGGUGAAUCUGCGAAUUCUGCUGU, for which the self-cleavage turned out to be 0.0686.

As for GGGGGGCACAGCAGAAGCCUUCACGUCGCGGCCCCUGUCAGAUUCUGGUGAAUCUGCGAAUUCUGCUGU, the self-cleavage was found to be 0.0471.

GGGGGGCACAGCAGAAGCGUUCACGUAGCGGCCCCUGUCAGAUUCUGGUGAAUCUGCGAAUUCUGCUGU: the self-cleavage was found to be 0.0381.

Take GGGGGGCACAGCAGAAGCGUUCACGUUGCGGCCCCUGUCAGAUUCUGGUGAAUCUGCGAAUUCUGCUGU: the self-cleavage turned out to be 0.0872.

With GGGGGGCACAGCAGAAGCGUUCACGUGGCGGCCCCUGUCAGAUUCUGGUGAAUCUGCGAAUUCUGCUGU, the self-cleavage worked out at 0.0563.

Turning to GGGGGGCACAGCAGAAGCGUUCACGUCGCGGCCCCUGUCAGAUUUUGGUGAAUCUGCGAAUUCUGCUGU, the self-cleavage was found to be 0.362.

GGGGGGCACAGCAGAAGCGUUCACGUCGCGGCCCCUGUCAGAUUAUGGUGAAUCUGCGAAUUCUGCUGU: the self-cleavage amounted to 0.227.

Consider GGGGGGCACAGCAGCAGCGUUCACGUCGCGGCCCCUGUCAGAUUCUGGUGAAUCUGCGAAUUCUGCUGU, for which the self-cleavage came to 0.122.

GGGGGGCACAGCAGAAGCGUUCACGUCGCGGCACCUGUCAGAUUCUGGUGAAUCUGCGAAUUCUGCUGU: the self-cleavage was 0.117.

With GGGGGGCACAGCAGAAGCGUUCACGUCGCGGCGCCUGUCAGAUUCUGGUGAAUCUGCGAAUUCUGCUGU, the self-cleavage is 0.0662.

Consider GGGGGGCACAGCAGAAGCGUUCACGUCGCGGCUCCUGUCAGAUUCUGGUGAAUCUGCGAAUUCUGCUGU, for which the self-cleavage is 0.262.

In the case of GGGGGGCACAGCAGAAGCGUUCACGUCUCGGCCCCUGUCAGAUUCUGGUGAAUCUGCGAAUUCUGCUGU, the self-cleavage worked out at 0.0241.

With GGGGGGUACAGCAGAAGCGUUCACGUCGCGGCCCCUGUCAGAUUCUGGUGAAUCUGCGAAUUCUGCUGU, the self-cleavage stood at 0.176.

Turning to GGGGGGCACAGCAGAAGCGUUCAGGUCGCGGCCCCUGUCAGAUUCUGGUGAAUCUGCGAAUUCUGCUGU, the self-cleavage was found to be 0.085.

Regarding GGGGGGCACAGCAGAAGCGUUCAAGUCGCGGCCCCUGUCAGAUUCUGGUGAAUCUGCGAAUUCUGCUGU, the self-cleavage was 0.0804.

Regarding GGGGGGCACAGCAGAAGCGUUCAUGUCGCGGCCCCUGUCAGAUUCUGGUGAAUCUGCGAAUUCUGCUGU, the self-cleavage turned out to be 0.193.

Consider GGGGGGCACUGCAGAAGCGUUCACGUCGCGGCCCCUGUCAGAUUCUGGUGAAUCUGCGAAUUCUGCUGU, for which the self-cleavage came out at 0.375.

For the variant GGGGGGCACGGCAGAAGCGUUCACGUCGCGGCCCCUGUCAGAUUCUGGUGAAUCUGCGAAUUCUGCUGU, the self-cleavage came to 0.459.
